Measured values as given in patent publication US20140212427A1 (published 2014).

B1: mAb 19.1 (antibody, V domains shown)
VH: QVQLKQSGPGLVQPSQSLSISCTVSGFSLTTYGVHWVRQSPGKGLEWLGVIWSGGDTDYNASFISRLRINKDTSKSQVFFKMNSLQADDTAYYCARNKDYYTNYDFTMDYWGQGTSVTVSS
VL: NIMMTQSPSSLAVSAGEKVTMSCKSSQSVLYSSNQKNFLAWYQQKPGQSPKLLIYWASTRESGVPDRFTGSGSGTDFILTINSVQVEDQAVYYCHQYLSSYTFGGGTKLEIK
B2: chimeric 19.1 mAb (antibody, V domains shown)
VH: B1 VH
VL: NIMMTQSPSSLAVSAGEKVTMSCKSSQSVLYSSNQKNFLAWYQQKPGQSPKLLIYWASTRESGVPDRFTGSGSGTDFILTINSVQVEDQAVYYCHQYLSSYTFGGGTKLEIKT
B3: humanized 19.1 mAb with heavy chain variable region humanized 19.1 VH-3-66-04 (antibody, V domains shown)
VH: EVQLVESGGGLVQPGGSLRLSCAASGFSLTTYGVHWVRQAPGKGLEWVSVIWSGGDTDYNASFISRFTISRDNSKNTLYLQMNSLRAEDTAVYYCARNKDYYTNYDFTMDYWGQGTTVTVSS
VL: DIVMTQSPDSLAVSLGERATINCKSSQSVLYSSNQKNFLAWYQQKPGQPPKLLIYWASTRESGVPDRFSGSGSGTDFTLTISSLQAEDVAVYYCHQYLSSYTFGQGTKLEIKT
B4: humanized 19.1 mAb with heavy chain variable region humanized 19.1 VH-4-59-01 (antibody, V domains shown)
VH: QVQLQESGPGLVKPSETLSLTCTVSGFSLTTYGVHWIRQPPGKGLEWIGVIWSGGDTDYNASFISRVTISVDTSKNQFSLKLSSVTAADTAVYYCARNKDYYTNYDFTMDYWGQGTTVTVSS
VL: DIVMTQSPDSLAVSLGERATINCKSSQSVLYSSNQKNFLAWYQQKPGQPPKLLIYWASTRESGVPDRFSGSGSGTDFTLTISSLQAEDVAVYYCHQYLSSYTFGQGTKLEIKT

These binders were tested against human properdin (UniProt P27918 28-469) (assay: Biacore SPR).
human properdin, sequence (P27918 28-469): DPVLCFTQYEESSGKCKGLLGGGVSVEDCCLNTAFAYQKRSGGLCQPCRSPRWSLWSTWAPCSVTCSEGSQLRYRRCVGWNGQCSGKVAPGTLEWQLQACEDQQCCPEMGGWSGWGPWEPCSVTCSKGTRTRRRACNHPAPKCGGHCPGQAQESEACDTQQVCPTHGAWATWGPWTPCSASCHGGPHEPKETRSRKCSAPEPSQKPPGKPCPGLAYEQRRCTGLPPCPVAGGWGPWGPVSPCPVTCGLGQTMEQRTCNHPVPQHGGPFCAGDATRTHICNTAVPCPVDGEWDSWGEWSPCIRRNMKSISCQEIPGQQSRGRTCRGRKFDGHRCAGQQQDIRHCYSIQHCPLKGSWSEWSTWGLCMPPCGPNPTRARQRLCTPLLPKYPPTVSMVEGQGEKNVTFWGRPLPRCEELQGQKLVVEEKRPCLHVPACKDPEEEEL

Row | Kd | Binder
1 | 0.00284 nM | B1
2 | 0.00289 nM | B2
3 | 0.47 nM | B3
4 | 0.58 nM | B4
